# Patent publication US20260078416A1, “ORTHOGONAL METABOLIC FRAMEWORK FOR ONE-CARBON UTILIZATION” (Mojia Biotech Pte. Ltd., priority 2021, published 2026)
# How the values were obtained:
# [1] = In vitro kinetic assay of purified HACS variants, coupled with CaAbfT formyl-CoA generation; substrate formaldehyde; type: biochemical; settings: for Km: read-out: Km, app
# Method: The kinetic assay was performed with a coupled reaction providing formyl-CoA from formate catalyzed by CoA transferase CaAbfT using acetyl-CoA as a CoA donor.
# In vitro kinetic assay was comprised of 100 mM KPi pH 6.9, 10 mM MgCl2, 0.15 mM TPP, 2 mM acetyl-CoA, 1 μM CaAbfT, 0.25 μM HACS variants, and 20 mM sodium formate. Reactions were incubated at room temperature for 3 min to convert formate to formyl-CoA, and then specific concentration of aldehyde (specifically acetaldehyde or propionaldehyde here) was added to the reaction. After incubating another 3 min, 1/20 of the reaction volume of 10 M NaOH solution was added to terminate the reactions. After 30 min hydrolysis, 1/20 of the reaction volume of 10 N H2SO4 was added to neutralize the pH. Samples were centrifuged at 20817×g for 15 minutes and the supernatant analyzed by GC-MS as described below.
# For this analysis, 0.15 of the reaction volume of internal standard methyl succinate was added to the samples. The resulting sample was extracted into 4 mL ethyl acetate by vigorous vortexing for 20 min. The organic phase was separated and evaporated to dryness under a stream of nitrogen. The residue was dissolved in 30 μL pyridine and 30 μL N,O-Bis(trimethylsilyl)trifluoroacetamide (BSTFA) and incubated at 60° C. for 15 minutes. Compound identification and analysis was performed by GC-MS using an Agilent 7890B Series Custom Gas Chromatography system equipped with a 5977B Inert Plus Mass Selective Detector Turbo EI Bundle (for identification) and an Agilent HP-5-ms capillary column (0.25 mm internal diameter, 0.25 μm film thickness, 30 m length). Samples were analyzed by GC (1 μL injection with a 20:1 split ratio) using helium as the carrier gas at a flowrate of 1.5 mL/min and the following temperature profile: initial 90° C. for 3 min; ramp at 15° C./min to 170° C.; ramp at 20° C./min to 300° C. and hold for 8 min. The injector and detector temperature were 250° C. and 350° C., respectively.
# As hypothesized from Example 3 (FIG. 22B), JGI15 had lower Km with lower kcat with respect to formaldehyde in comparison with JGI20 (Table 8). With longer chain aldehydes JGI15 and JGI20 has lower Km (sub millimolar) to acetaldehyde and propionaldehyde compared to JGI23 and JGI24, while also lower Kcat as well. Which indicates they have stronger affinity to the aldehyde and lower enzymatic activity. JGI23 and JGI24 are promising as they have better activity (higher Kcat) which have a good potential to work better in vivo by improve their affinity to substrates (lower Km). Similarly, AcHACL as lower Km with acetone while JGI15 as better Kcat (Table 8).
# [2] = system: glycolate production from formaldehyde; test: High throughput resting-cell screening of first round HACS variants co-expressed with LmACR; type: cell-based, E. coli; settings: 5 mM formaldehyde, 3 hours
# Description: We used glycolic acid (glycolate) productivity per cell density (uM glycolate/OD600) as indicator of HACS activity. Glycolate can be produced from formaldehyde as sole carbon source in the presence of active HACS variant and acyl-CoA reductase from Listeria monocytogenes (LmACR) (FIG. 20A). LmACR is shown to be capable of catalyzing oxidation reaction from formaldehyde to formyl-CoA (Chou, A., et al. Nat. Chem. Biol. 15:900-906 (2019)). HACS condenses formaldehyde and formyl-CoA to form glycolyl-CoA, which can then be hydrolyzed to glycolate via native thioesterase activities (FIG. 20A).
# To prototype glycolate production pathway from formaldehyde in vivo, we constructed vectors overexpress various HACS candidates and LmACR, with both under control of the IPTG-inducible T7 promoter in pCDFDuet-1 and pETDuet-1, respectively (FIG. 20C). […]
# Cells from the above pre-cultures were then centrifuged (4000 rpm, 22° C.), washed with the above minimal media without any carbon source, and resuspended with 1 mL of above minimal media containing indicated amounts of carbon source. […] After incubation at 30° C. for 3 hours, the cells were pelleted by centrifugation and the supernatant analyzed by HPLC or GC-MS as described below. […] The soluble cell lysates obtained from the supernatant were analyzed using SDS-PAGE. […]
# [3] = system: 2HIB production from acetone and formate; test: HACS screening with acetone and formate (2HIB production); type: cell-based, E. coli; settings: 100 mM acetone and 20 mM formate, CaAbfT
# Method: The HACS variants are tested using the high throughput screening platform as described in EXAMPLE 3 pathway 2 by co-feeding 100 mM acetone and 20 mM formate with formate activation enzyme CaAbfT (FIG. 37A).
Molecule,"Kcat, app [1] [s⁻¹]",Km [1] [mM],glycolate productivity and relative HACS expression compared with RuHACL [2],performance in 2HIB production [3],performance in 2HIB production ([3]; listed as JG115)
JGI20: HACS variant; GenBank PWB41796.1 (protein) MGQITGAQIVARALKQQGVEYMFGIVGIPVIPIAMFAQREGIKFYGFRNEQSASYAAAAVGYLTGRPGVCLGVSGPGMIHGVAGMANAWSNCWPMILIGGANDSYQNGQGAFQEAPQIEAARPFAKYCARPDSLARLPFYVEQAVRTSIYGRPGAVYLDLPGDIITGAMEEEDVHFPPRCPDAPRMMAPQESIDAAMAALKSAERPLVIVGKGAAYSRAENEVREFLETTQLPYLASPMGKGVMPDDHPLSIAPARSAALLGADVILLMGARLNWMMHFGHPPRFDPKVRVIQMDISAEEIGTNVPTEVALVGDAKAITTQLNASLKQQPWQYPSETTWWTGLRKKIDENGATVAEMMADESVPMSYYRVYREIRDLIPNDAIIQNEGASTMDIGRTLMPNFLPRHRLDAGSFGTMGVGLGQAIAAAAVHPDKHVFCIEGDSAFGFSGMEVETAARYGMKNITFIIINNNGIGGGPDTLDPTRVPPSAYTPNAHYEKMAEIYGGKGYFVTEPSQLRPALEEAIKADKPAIVNIMISATSQRKPQQFAWLTR,9.53,21.4,better glycolate productivity and relative HACS expression than the starting reference,better performance than other HACLs,–
JGI15: HACS variant; GenBank HAK63664.1 (protein) MAKSEGKVNGATLMARALQQQGVQYMFGIVGFPVIPIAIAAQREGITYIGMRNEQSASYAAQAASYLTGRPQACLVVSGPGVVHALAGLANAQVNCWPMLLIGGASAIEQNGMGAFQEERQVLLASPLCKYAHQVERPERIPYYVEQAVRSALFGRPGAAYLDMPDDVILGEVEEAAVRPAATVGEPPRSLAPQENIEAALDALQSAKRPLVIVGKGMAWSRAENEVRQFIERTRLPFLATPMGKGVMPDDHPLSVGGARSHALQEADLVFLLGARFNWILHFGLPPRYSKDVRVIQLDLSAEEIGNNRQAEVALVGDGKAIVGQLNQALSSRQWFYPAETPWREAIAAKIAGNQAAVAPMIADNTSPMNYYRVYRDIAARLPRNAIIVGEGANTMDIGRTQMPNFEPRSRLDAGSYGTMGIGLGFAVAAAAVHPGRPVIAVQGDSAFGFSGMEFETAARYGMPIKVIILNNGGIGMGSPAPRDGQPGMPHALSHDARYERIAEAFGGAGFYVTDSAELGPALDAAMAFKGPAIVNIKIAATADRKPQQFNWHG,5.98,3.87,better glycolate productivity and relative HACS expression than the starting reference,best performance,better performance than other HACLs
